The values below come from patent US20110136145A1, “METHODS FOR PROMOTING FUSION AND REPROGRAMMING OF SOMATIC CELLS” (THE JOHNS HOPKINS UNIVERSITY, priority 2008, published 2011).

Data set [1] relates to ESC-induced Oct4-GFP re-activation in NSCs. The experiment in a line: CLEAR analysis of ESC fusion-induced reprogramming (PEG-induced fusion of Z-Red ESCs and CIPOE NSCs, flow cytometry). The source says:
CLEAR strategy uses engineered ESCs and NSCs for monitoring fusion-induced DsRed expression and reprogramming-induced GFP expression (FIG. 1A). Z-Red ESCs were derived from a clonal ESC line containing one copy of a transgene (CAG-loxP-LacZ::neomycin-polyA-loxP-DsRed.T3) as a Cre recombination excision reporter.
Adult NSCs were isolated from Oct4-GFP (GOF 18-A PE-EGFP) transgenic mice and transduced by retroviruses to stably co-express Cre and the puromycin resistance gene through a bicistronic cassette (termed CIPOE NSCs hereafter). Somatic cells with Oct4-GFP transgene integration have been used previously to investigate reprogramming, in which the regulatory elements of Oct4 direct reliable GFP reactivation from somatic genomes in reprogrammed ESC-like hybrid cells (also see FIG. 3). Multiple CIPOE NSC lines from Oct4-GFP transgenic mice were established, characterized and used for subsequent cell fusion experiments.
To quantitatively analyze the reprogramming-induced Oct4-GFP re-activation, dual-color flow cytometry was used to display and measure the cell population that underwent PEG-induced cell fusion. Viable cells were identified by their typical FSC (Forward Scatter) and SSC (Side Scatter) properties. To ensure appropriate gating for […] and DsRed+ events and to compensate the spectrum crossover of GFP and DsRed signals, the system was first calibrated using multiple control cells, including Z-Red ESCs, CIPOE NSCs, mixed Z-Red ESCs and CIPOE NSCs without PEG. Z-Red ESCs transfected with a constitutive Cre expression plasmid, and CIPOE NSCs transfected with a Cre excision reporter plasmid (FIG. 4A).
ESC fusion-induced Oct4 re-activation from NSCs was quantitatively measured using two different approaches. In the first approach, the reprogramming frequency (Rf) is determined by the ratio of GFP DsRed+ cells to total DsRed+ cells. […] In the second approach, the reprogramming efficacy is determined by the distribution of GFP fluorescence intensities of individual cells from the DsRed+ population (FIG. 4C). This analysis provides a measurement of the efficiency of Oct4-GFP re-activation in NSCs after successful fusion.
The protocol was optimized for PEG-induced cell fusion between ESCs and NSCs to achieve maximum efficiency and minimal toxicity. Equal numbers of ESCs and NSCs were mixed thoroughly and spun down in PBS. The pellet was loosened by gentle tapping and 50% PEG (500 μl for 1×10^7 cells) was added to the cells continuously over one minute while swirling the mixture in 37° C. water bath Next, 2 ml of ESC medium was layered on top of PEG-cell mixture and one-minute incubation in 37° C., followed by low-speed centrifugation at 1,800 rpm for 5 minutes. After removing the supernatant, the pellet was incubated with ESC medium for one minute, washed, resuspended and plated onto gelatin-coated dishes and grown in Dubelcco's Modified Eagle's Medium, 15% fetal bovine serum supplemented with mouse leukemia inhibitory factor (ESGRO), 0.1 mM nonessential amino acids, 0.1 mM β-mercaptoethanol, and 50 U/ml penicillin/50 μg/ml streptomycin (ESC medium). […] The following pharmacological inhibitors were applied in ESC-fusion experiments only during the first 48 hours after fusion. DMOG (5-10 μM; BioMol), Anacardic acid (5-10 μM; Calbiochem), Trichostatin A (TSA, 100 nM-1 μM; Sigma) and azidothymidine (AZT, 1-5 μM; Sigma).

A further data set has as its system Oct4. Nature of the data set: Conventional RT-PCR and quantitative PCR of endogenous Oct4 expression in adult NSCs. In kind it is cell-based, mouse. As to the method: (§1) (A) is a schematic drawing of Oct4 promoter with 16 CpG sites, which are located between the proximal enhancer and exon 1. Bisulfite sequencing analysis is performed for genomic DNA extracted from CIPOE, Z-Red ESCs, fusion clone B3, CIPOE-shControl and CIPOE-shG9a NSCs. (B, C) show conventional RT-PCR (B) and quantitative real-time PCR(C) are used to compare the mRNA abundance of Oct4 in CIPOE, Z-Red ESCs, fusion clone B3, CIPOE-shControl and CIPOE-shG9a NSCs. Data represent mean+SEM. (n=3, *. P<0.01, Student's t-test).
Reprogramming requires erasure of the somatic epigenoine including both histone and DNA modification. Next it was further tested whether DNA demethylation of pluripotency gene Oct4 induced by ESC-mediated reprogramming may partially account for the facilitating effects of histone demethylation during reprogramming. […] The impact of G9a knockdown on endogenous Oct4 expression was also evaluated. […] The mRNA abundance of Oct4 expression measured in bulk adult NSC cultures with G9a knocking-down reached around 10% of that in ESCs, while little expression was detected in CIPOE or CIPOE cells expressing the control shRNA.
(§2) For real-time quantitative PCR, total RNAs were purified using RNAeasy kit (Qiagen) and converted to cDNA by SuperScript III (Invitrogen). Triplicate cDNA samples were added to a SYBR-green based quantitative PCR reaction mix and analyzed using the ddCt methods. […]

For the next data set, the system named is Oct4 promoter. The experiment in a line: Bisulfite sequencing of Oct4 promoter in CIPOE NSCs. Format: cell-based, mouse. Conditions: independent of cell fusion. As for the experimental part:
as §1
Reprogramming requires erasure of the somatic epigenoine including both histone and DNA modification. […] The impact of G9a knockdown on endogenous Oct4 expression was also evaluated. […] The mRNA abundance of Oct4 expression measured in bulk adult NSC cultures with G9a knocking-down reached around 10% of that in ESCs, while little expression was detected in CIPOE or CIPOE cells expressing the control shRNA.
For bisulfite genomic sequencing, 500 ng of genomic DNA from each sample was digested by EcoRI overnight, followed by boiling for 5 min and incubation in 0.3 M NaOH at 50° C. for 15 min. […] Efficiency of bisulfite conversion was monitored by the presence of unconverted C residues in non-CpG regions, which were only seldom seen. […]

The next data set has as its system G9a. Nature of the data set: Quantitative real-time PCR of G9a expression in CIPOE NSCs. In kind it is cell-based, mouse. The settings on record: CIPOE cells.
Excerpt: Shown is a summary of quantitative real-time PCR analysis of the expression level of G9a in Z-Red ESCs, CIPOE NSCs, CIPOE NSCs with control shRNA or G9a-targeted shRNA. The mRNA abundance was normalized to the levels in CIPOE cells. Values represent mean+SEM (n=3; * P<0.01, Students t-test). […] Shown are results from cell fusion experiments between Z-Red and CIPOE, CIPOE-shControl, or CIPOE-shG9a cells. Values represent mean+SEM (n=3; *- P<0.01 Students t-test). (C) Summary of reprogramming efficacy. Cumulative distribution plots of DsRed+ population with graded GFP fluorescence intensities are shown for comparison of the reprogramming efficacy of Z-Red ESCs with CIPOE-shControl, or CIPOE-shG9a cells at day 2 and day 4 after cell fusion. Values represent mean±SEM (n=3; *: P<0.01, Kolmogorov-Smirnov test).
Next, the molecular identities of epigenetic factors that play critical roles in reprogramming were examined. […] Using a previously validated small short-hairpin RNA (shRNA) for mouse G9a, the expression of endogenous G9a was knocked down in CIPOE cells, as shown by quantitative real-time PCR (FIG. 7A). […]
as §2
A general note: Quantitative PCR measures a nucleic acid by following its amplification.

Where [2] appears, read: 100 nM, applied only during the first 48 hours after fusion.

For `N[C@@H]1C[C@H]1c1ccccc1` (racemic) [Tranylcypromine], the “Effects (on reprogramming)” value in data set [1] (2 μM, applied only during the first 48 hours after fusion) was “mild reprogramming deficit”.
Take `CCCCCCCCCCCCCCCc1cccc(O)c1C(=O)O` [Anacardic acid]: in data set [1] (5 μM, applied only during the first 48 hours after fusion), the “Effects (on reprogramming)” value is recorded as “mild reprogramming deficit;”.
With `CC(/C=C/C(=O)NO)=C\[C@@H](C)C(=O)c1ccc(N(C)C)cc1` [TSA, Trichostatin A], in data set [1] (setting [2]), the “Effects (on reprogramming)” value is listed as “pro-differentiation” and the “Effects (toxicity to the cells)” value was “toxic”.

B1: shRNA-G9a: short hairpin RNA for mouse G9a, …, cloned into retroviral vector pUEG (nucleic acid, listed as Mus musculus)
chain: TCTATCGCCTTGAGCCGTTGGCCTTCAGATAGGCTGATTTGGTTGGTGTCTTGCTCTTTCTGTGGGAAGGCTGCGGCTCACTTCCTTCTGACTTCTTGATAATTTTGCATTAGACATTTAACTCTTCTTTCTATGATCTTTCCTTCTAGACACTGAGTTTTTTGGTTGTTGCCTAAAACCTTTTCAGAAATCCCTTCCCTCGCCATCACACTGACATGAGTGTGGGTCTTCCTGGTCCCCACAGTTTGCCTAGTTCTGAGGAAGCATCGAATTCTGGGAACGCCTCATCAATGCCTGCAGTTTTTCATCCCGAGAACTATTCTTGCTTACAAGGGTCTGCTACTGAGATGCTCTGCACAGAGGCTGCCTCTCCTCGCCCTTCCTCTGAAGACCTGCCTCTTCAAGGCAGCCCTGATTCTTCTACCAGTCCCAAACAAAAGCTCTCAAGTCCTGAGGCTGACAAGGGCCCTGAGGAGGAGGAGAACAAGGTCCTTGCCAGGAAGCAGAAGATGCGGACTGTGTTCTCTCAGGCCCAGCTGTGTGCACTCAAGGACAGGTTTCAGAAGCAGAAGTACCTCAGCCTCCAGCAGATGCAAGAACTCTCCTCCATTCTGAACCTGAGCTATAAGCAGGTTAAGACCTGGTTTCAAAACCAAAGGATGAAGTGCAAGCGGTGGCAGAAAAACCAGTGGTTGAAGACTAGCAATGGTCTGATTCAGAAGGGCTCAGCACCAGTGGAGTATCCCAGCATCCATTGCAGCTATCCCCAGGGCTATCTGGTGAACGCATCTGGAAGCCTTTCCATGTGGGGCAGCCAGACTTGGACCAACCCAACTTGGAGCAGCCAGACCTGGACCAACCCAACTTGGAACAACCAGACCTGGACCAACCCAACTTGGAGCAGCCAGGCCTGGACCGCTCAGTCCTGGAACGGCCAGCCTTGGAATGCTGCTCCGCTCCATAACTTCGGGGAGGACTTTCTGCAGCCTTACGTACAGTTGCAGCAAAACTTCTCTGCCAGTGATTTGGAGGTGAATTTGGAAGCCACTAGGGAAAGCCATGCGCATTTTAGCACCCCACAAGCCTTGGAATTATTCCTGAACTACTCTGTGACTCCACCAGGTGAAATATGAGACTTACGCAACATCTGGGCTTAAAGTCAGGGCAAAGCCAGGTTCCTTCCTTCTTCCAAATATTTTCATATTTTTTTTAAAGATTTATTTATTCATTATATGTAAGTACACTGTAGCTGTCTTCAGACACTCCAGAAGAGGGCGTCAGATCTTGTTACGTATGGTTGTGAGCCACCATGTGGTTGCTGGGATTTGAACTCCTGACCTTCGGAAGAGCAGTCGG
modifications: cloned into retroviral vector pUEG
notes: short hairpin RNA for mouse G9a, …, cloned into retroviral vector pUEG
Consider B1, for which the “increase in the reprogramming frequency” value in data set [1] (day 2, expressed in CIPOE NSCs) was found to be 110%; in data set [1] (day 4, expressed in CIPOE NSCs), 26%. Moreover, in data set [1] (day 2 and day 4, expressed in CIPOE NSCs), the “efficacy of ESC-induced Oct4-GFP re-activation” value is listed as “significantly enhanced”. Besides, the “expression of endogenous Oct4” value in the data set on Oct4 (adult NSCs, conventional and quantitative PCR) is listed as “partially re-activated”. The “mRNA abundance of Oct4 expression” value in the data set with Oct4 (bulk adult NSC cultures, relative to that in ESCs) is on record as “around 10%”. Moreover, the “DNA methylation in Oct4 promoter regions” value in the data set on Oct4 promoter is “considerably decreased”. In addition, the “expression of endogenous G9a” value with G9a is listed as “knocked down”.
